B1: CL25_hu_8-4 (antibody, V domains shown)
VH: QVQLVQSGAEVKKPGASVKVSCKASGYTFTSYGLSWVRQATGQGLEWMGEIYPGSGNTYYNEKFKGRVTMTRNTSISTAYMELSSLRSEDTAVYYCARYDYLGSSYGFDYWGAGTTVTVSS
VL: DIQMTQSPSSLSASVGDRVTITCKASQDVSTAVAWYQQKPGKAPKLLLYSASYRYSGVPSRFSGSGSGTDYTLTISSLQPEDFATYYCQQHYNTPYTFGGGTKLEIK
notes: Humanized CL25 antibody; captured by anti-human Fc in SPR
B2: CL25_hu_9-6 (antibody, V domains shown)
VH: B1 VH with A16S, T41P, M70I, R72A, N73D, T74E, I76T
VL: B1 VL with D1A, Q3R, L11F, V15T, L48I, Y71F, S77C, P80S
notes: Humanized CL25 antibody
B3: CL25_hu_11-5 (antibody, V domains shown)
VH: B1 VH with R72A
VL: DIVMTQSPDSLAVSLGERATINCKASQDVSTAVAWYQQKPGQPPKLLIYSASYRYSGVPDRFSGSGSGTDFTLTISSLQAEDVAVYYCQQHYNTPYTFGGGTKLEIK
notes: Humanized CL25 antibody
B4: CL25_hu_10-4 (antibody, V domains shown)
VH: EVQLVQSGAEVKKPGESLKISCKGSGYTFTSYGLSWVRQMPGKGLEWMGEIYPGSGNTYYNEKFKGQVTISADKSISTAYLQWSSLKASDTAMYYCARYDYLGSSYGFDYWGAGTTVTVSS
VL: B1 VL
notes: Humanized CL25 antibody
B5: CL25_hu_10-6 (antibody, V domains shown)
VH: B4 VH
VL: B1 VL with D1A, Q3R, L11F, V15T, L48I, Y71F, S77C, P80S
notes: Humanized CL25 antibody
B6: CL25_hu_11-6 (antibody, V domains shown)
VH: B1 VH with R72A
VL: B1 VL with D1A, Q3R, L11F, V15T, L48I, Y71F, S77C, P80S
notes: Humanized CL25 antibody
B7: CL25_hu_9-5 (antibody, V domains shown)
VH: B1 VH with A16S, T41P, M70I, R72A, N73D, T74E, I76T
VL: B3 VL
notes: Humanized CL25 antibody
B8: CL25_hu_9-4 (antibody, V domains shown)
VH: B1 VH with A16S, T41P, M70I, R72A, N73D, T74E, I76T
VL: B1 VL
notes: Humanized CL25 antibody
B9: CL25_hu_8-5 (antibody, V domains shown)
VH: B1 VH
VL: B3 VL
notes: Humanized CL25 antibody
B10: CL25_hu_8-6 (antibody, V domains shown)
VH: B1 VH
VL: B1 VL with D1A, Q3R, L11F, V15T, L48I, Y71F, S77C, P80S
notes: Humanized CL25 antibody

Numbering of substitutions follows the chain as printed.

This assay has as its target T1, recombinant human CD73 (SEQ ID NO:70) (human, UniProt P21589 27-549).
T1 construct: Soluble recombinant protein in normal SPR running buffer (open conformation), the soluble enzyme assay and HDX-MS; SPR stock bought from BPS Bioscience; also called rhuCD73; CD73 in the open conformation
T1 sequence: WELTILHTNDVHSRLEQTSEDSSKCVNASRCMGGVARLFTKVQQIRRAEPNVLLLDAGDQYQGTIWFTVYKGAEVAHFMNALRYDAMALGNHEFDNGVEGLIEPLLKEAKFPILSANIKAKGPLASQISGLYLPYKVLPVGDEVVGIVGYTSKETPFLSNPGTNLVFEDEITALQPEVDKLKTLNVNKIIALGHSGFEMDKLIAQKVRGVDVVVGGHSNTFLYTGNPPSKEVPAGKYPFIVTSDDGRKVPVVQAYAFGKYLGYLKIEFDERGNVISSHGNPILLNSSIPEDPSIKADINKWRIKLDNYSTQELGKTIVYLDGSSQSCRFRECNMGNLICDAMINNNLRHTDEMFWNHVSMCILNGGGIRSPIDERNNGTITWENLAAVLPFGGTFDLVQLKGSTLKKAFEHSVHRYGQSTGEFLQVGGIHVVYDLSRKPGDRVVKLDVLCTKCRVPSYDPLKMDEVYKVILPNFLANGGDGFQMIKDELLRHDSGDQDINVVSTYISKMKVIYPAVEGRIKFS
Nature of the assay: SPR (Biacore 8K), antibody captured on anti-human Fc, CD73 as analyte, open conformation. On the procedure:
The SPR running buffer (10 mM HEPES, 150 mM NaCl, 3 mM EDTA and 0.05% v/v Surfactant P20, pH 7.4) was prepared from 10×HBS-EP Buffer (GE Healthcare). Anti-human Fc antibodies (GE Healthcare) were immobilized via amine coupling on all sixteen flow cells of an S series sensor chip CM5 (GE Healthcare). The immobilization levels were ˜9000 RU for all flow cells. […] The non-cleavable ADP analogue APCP (adenosine-5′-(α,β-methylene) diphosphate) with the presence of Zn²⁺ can be used to shift the CD73 conformational equilibrium from open towards closed. Therefore, recombinant CD73 was incubated with SPR running buffer in the presence of 100 μM APCP and 10 μM ZnCl₂ (closed SPR running buffer) to study the binding of anti-CD73 antibody to the CD73 in the closed conformation. To achieve this, the ABA injection feature in Biacore 8K was used. For open conformation, the ABA injection sequence started with 60 seconds injection of running buffer. Then, CD73 3-fold serial dilution concentration series prepared from CD73 stock (BPS Bioscience) and running buffer were injected for 180 seconds immediately followed by running buffer for 240 seconds. For closed conformation, the normal SPR running buffer was replaced by closed SPR running buffer. Surface was regenerated with 30 seconds injection of 3 M MgCl₂.
B1: the Kd was 2.29 nM, the koff is 0.00176 s⁻¹ and the kon was 770000 M⁻¹ s⁻¹.

For B2, the Kd came out at 2.25 nM, the koff came out at 0.000953 s⁻¹ and the kon was 424000 M⁻¹ s⁻¹.

In the case of B3, the Kd came out at 1.46 nM, the koff is 0.00117 s⁻¹ and the kon came to 799000 M⁻¹ s⁻¹.

On to B4, for which the Kd came to 1.2 nM, the dissociation rate constant (koff) came to 0.00107 s⁻¹ and the kon is 887000 M⁻¹ s⁻¹.

Turning to B5, the Kd turned out to be 1.75 nM, the koff came to 0.00092 s⁻¹ and the kon was found to be 524000 M⁻¹ s⁻¹.

With B6, the Kd worked out at 1.84 nM, the koff turned out to be 0.00101 s⁻¹ and the kon came to 550000 M⁻¹ s⁻¹.

Consider B7, for which the Kd was 2.02 nM, the koff stood at 0.00114 s⁻¹ and the kon was 565000 M⁻¹ s⁻¹.

Consider B8, for which the Kd was 6.9 nM, the koff worked out at 0.00264 s⁻¹ and the kon was 382000 M⁻¹ s⁻¹.

Regarding B9, the Kd stood at 0.718 nM, the koff stood at 0.000949 s⁻¹ and the kon is greater than 1e+06 M⁻¹ s⁻¹.

B10: the Kd amounted to 1.55 nM, the koff came to 0.00111 s⁻¹ and the kon came out at 715000 M⁻¹ s⁻¹.

As a reminder, the Kd is the equilibrium constant for the complex coming apart. A word on the koff: it is a measure of how fast the partners let go of each other. In general, kon refers to a measure of how fast the partners come together.

These data come from patent publication US20210230294A1 (Incyte, published 2021).
